Drawing on PMC12480940, this text covers Kd and koff for two substances.

Common to all, as to experiment: SPR; Biacore T200, 25 °C, pH 5.5 (177 mM phosphate, 85 mM NaCl, 0.005% TWEEN-20); FIX-HSA variants amine-coupled (200 RU) on CM5; soluble His-tagged hFcRn (15.6-2000.0 nM for HSAWT, 1.95-62.5 nM for HSAQMP) or mFcRn (7.8-8000.0 nM for HSAWT, 3.9-500 nM for HSAQMP) injected; 1:1 Langmuir model
For assay [1], the target named is PaduaKR-HSAQMP (human) (UniProt P02768).
Assay [2] deals with FIXKA-HSAWT (human) (UniProt P02768).
Assay [3] has as its target FIXKR-HSAWT (human) (UniProt P02768).
The target in assay [4] is PaduaKA-HSAQMP (human) (UniProt P02768).
In assay [5] the target is Padua-HSAQMP (human).

As usually defined, the Kd is the concentration at which binding is half-saturated. The low end stands for a tighter complex, the high end for a looser complex. What is called koff is a measure of how fast the partners let go of each other. Read a low koff as a long-lived complex.

Consider “soluble truncated His-tagged human neonatal Fc receptor (from UniProt P55899 24-297; P61769 21-119)”, for which the Kd in assay [1] was 0.3 nM; in assay [2] it was 177 nM; in assay [3], 190 nM; in assay [4], 0.2 nM. In addition, the koff in assay [1] was found to be 7e-05 s⁻¹; in assay [2] it was 0.00769 s⁻¹; in assay [3], 0.00827 s⁻¹; in assay [4] it was 6e-05 s⁻¹.

“soluble truncated His-tagged mouse neonatal Fc receptor (from UniProt Q61559 22-297; P01887 21-119)”: the results for the Kd in assay [1], in assay [5] and in assay [4] were 54.9 nM, 44.6 nM and 51.7 nM, respectively. In addition, the koff came to 0.00429 s⁻¹ in assay [1], 0.00512 s⁻¹ in assay [5] and 0.0028 s⁻¹ in assay [4].
